Test system: insulin

recombinant human IDE42-1019 (R&D Systems)
degradation of insulin by IDE (HTRF insulin assay, 0.4 µg/mL IDE, 10 ng/mL insulin, 30° C., 15 min): ˜75% degradation of insulin

From US20160282364
